# Laboratory results: PMC9426602, “The Native Orthobunyavirus Ribonucleoprotein Possesses a Helical Architecture” (mBio, 2022)
# B1: Bunyamwera virus (BUNV) nucleocapsid protein (NP), as it stands in native ribonucleoproteins (RNPs) purified from virions (natural protein)
# chain: MIELEFHDVAANTSSTFDPEVAYANFKRVHTTGLSYDHIRIFYIKGREIKTSLAKRSEWEVTLNLGGWKITVYNTNFPGNRNNPVPDDGLTLHRLSGFLARYLLEKMLKVSEPEKLIIKSKIINPLAEKNGITWNDGEEVYLSFFPGSEMFLGTFRFYPLAIGIYKVQRKEMEPKYLEKTMRQRYMGLEAATWTVSKLTEVQSALTVVSSLGWKKTNVSAAARDFLAKFGINM
# notes: the atomic model started from the BUNV NP crystal structure PDB 3ZLA; Many copies of NP form a helical filament around each RNA segment (about 3.4 NPs per turn); the number of copies depends on the segment; The viral RNA is part of the assembly; also called BUNV NP; source: native RNPs from BUNV virions grown in BHK-21 cells; virions disrupted by freeze/thaw, RNPs purified on a 10 to 25% OptiPrep …
# Target: the molecule itself
# Assay: negative staining EM; purified native RNPs, untreated, in reduced-salt TNE (25 mM NaCl), 1% uranyl acetate
protein,measurement,value
B1,binding result,binds
